The values below come from patent US20250346644A1 (LATTICON SUZHOU BIOPHARMACEUTICALS, published 2025).

Assay [1] addresses T1, high-affinity IL2R expressed on the surface of CTLL-2 cells.
T1 sequence (P01590 whole entry, species assumed, looked up): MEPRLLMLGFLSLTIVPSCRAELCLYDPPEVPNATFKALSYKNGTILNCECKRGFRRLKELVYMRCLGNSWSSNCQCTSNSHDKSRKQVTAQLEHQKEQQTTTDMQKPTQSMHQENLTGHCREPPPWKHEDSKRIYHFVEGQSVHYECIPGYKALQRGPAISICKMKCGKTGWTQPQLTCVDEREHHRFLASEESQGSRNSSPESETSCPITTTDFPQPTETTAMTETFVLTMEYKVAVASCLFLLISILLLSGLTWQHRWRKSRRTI
T1 sequence (P16297 whole entry, species assumed, looked up): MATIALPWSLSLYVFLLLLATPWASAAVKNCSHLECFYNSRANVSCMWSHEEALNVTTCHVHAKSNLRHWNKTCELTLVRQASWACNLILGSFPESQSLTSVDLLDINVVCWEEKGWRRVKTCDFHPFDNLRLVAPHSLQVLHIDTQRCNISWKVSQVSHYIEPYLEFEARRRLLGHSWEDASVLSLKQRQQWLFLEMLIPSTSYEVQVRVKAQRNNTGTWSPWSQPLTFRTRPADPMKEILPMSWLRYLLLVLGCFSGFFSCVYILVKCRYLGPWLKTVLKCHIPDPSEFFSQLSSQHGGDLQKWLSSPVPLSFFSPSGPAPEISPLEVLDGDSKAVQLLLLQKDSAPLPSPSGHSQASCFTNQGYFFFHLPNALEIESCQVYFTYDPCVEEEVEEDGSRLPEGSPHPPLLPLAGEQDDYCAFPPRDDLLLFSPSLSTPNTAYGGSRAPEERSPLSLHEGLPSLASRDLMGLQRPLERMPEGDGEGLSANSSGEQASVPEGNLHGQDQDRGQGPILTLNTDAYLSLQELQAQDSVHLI
T1 sequence (P34902 whole entry, species assumed, looked up): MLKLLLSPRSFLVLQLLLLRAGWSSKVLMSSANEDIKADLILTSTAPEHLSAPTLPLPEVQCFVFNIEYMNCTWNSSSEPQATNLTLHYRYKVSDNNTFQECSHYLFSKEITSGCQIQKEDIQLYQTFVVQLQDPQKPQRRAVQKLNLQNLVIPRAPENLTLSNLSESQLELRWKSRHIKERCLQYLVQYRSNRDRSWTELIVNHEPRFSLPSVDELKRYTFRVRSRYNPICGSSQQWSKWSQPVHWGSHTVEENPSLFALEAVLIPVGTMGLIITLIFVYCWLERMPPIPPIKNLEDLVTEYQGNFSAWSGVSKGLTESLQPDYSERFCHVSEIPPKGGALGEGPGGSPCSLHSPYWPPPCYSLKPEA
As to the kind of experiment: cell-based or functional assay.

In another assay the target is T2, hIL2Rα/β/γ complex (human, UniProt P01589 22-213; P14784 27-239; P31785 23-254).
T2 construct: assembled in the BLI assay from bought subunits; also called hIL2Rα/o/γ complex
T2 sequence (looked up) 1: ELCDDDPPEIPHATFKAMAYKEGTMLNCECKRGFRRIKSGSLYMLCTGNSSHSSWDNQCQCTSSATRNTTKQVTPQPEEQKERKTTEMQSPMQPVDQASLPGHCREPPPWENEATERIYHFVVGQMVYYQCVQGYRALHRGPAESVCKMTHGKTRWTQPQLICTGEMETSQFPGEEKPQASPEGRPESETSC
T2 sequence (looked up) 2: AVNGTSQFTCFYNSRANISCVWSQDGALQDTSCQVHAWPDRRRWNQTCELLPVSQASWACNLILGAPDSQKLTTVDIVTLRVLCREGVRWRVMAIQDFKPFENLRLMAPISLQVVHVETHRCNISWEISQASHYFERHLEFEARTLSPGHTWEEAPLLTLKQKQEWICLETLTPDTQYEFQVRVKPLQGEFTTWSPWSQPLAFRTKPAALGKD
T2 sequence (looked up) 3: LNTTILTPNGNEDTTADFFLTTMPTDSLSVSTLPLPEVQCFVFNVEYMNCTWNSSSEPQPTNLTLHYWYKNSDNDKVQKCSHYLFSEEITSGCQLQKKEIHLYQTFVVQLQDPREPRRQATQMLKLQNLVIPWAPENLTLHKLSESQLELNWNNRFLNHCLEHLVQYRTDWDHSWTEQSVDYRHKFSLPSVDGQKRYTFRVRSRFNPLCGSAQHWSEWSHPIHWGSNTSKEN
As to the kind of experiment: BLI (ForteBio): biotin-CD25 on an SA sensor, CD122 step, then sample together with CD132. Background: In BLI a coated tip is dipped into the sample, and binding shifts an interference pattern.

The next assay has as its target T3, hIL2Rα/β complex (human, UniProt P01589 22-213; P14784 27-239).
T3 construct: assembled in the BLI assay from bought subunits; also called hIL2Rα/O complex
T3 sequence (looked up) 1: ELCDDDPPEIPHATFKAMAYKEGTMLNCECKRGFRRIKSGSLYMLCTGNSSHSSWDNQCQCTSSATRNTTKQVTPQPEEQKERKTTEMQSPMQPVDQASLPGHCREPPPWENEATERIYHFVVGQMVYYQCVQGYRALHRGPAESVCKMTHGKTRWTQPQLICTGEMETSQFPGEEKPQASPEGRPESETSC
T3 sequence (looked up) 2: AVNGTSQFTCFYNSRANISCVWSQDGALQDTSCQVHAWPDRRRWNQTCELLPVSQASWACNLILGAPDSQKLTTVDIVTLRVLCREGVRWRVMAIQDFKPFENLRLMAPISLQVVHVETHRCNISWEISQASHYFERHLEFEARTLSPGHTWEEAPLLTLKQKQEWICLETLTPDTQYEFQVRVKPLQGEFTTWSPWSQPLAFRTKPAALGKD
Kind of assay: BLI (ForteBio): biotin-CD25 on an SA sensor, CD122 step, then sample together with CD122.

In the next assay the target is T4, hIL2Rα (hCD25) (human, UniProt P01589 22-213, limits assumed).
T4 construct: bought recombinant protein; also called hCD25 (Acro); biotin-CD25 (Acro)
T4 sequence (looked up): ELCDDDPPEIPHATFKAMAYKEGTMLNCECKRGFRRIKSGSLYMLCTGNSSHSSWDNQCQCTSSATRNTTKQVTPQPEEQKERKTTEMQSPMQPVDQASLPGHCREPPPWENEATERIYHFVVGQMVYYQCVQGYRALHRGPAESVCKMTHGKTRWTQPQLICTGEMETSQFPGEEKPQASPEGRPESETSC
Kind of assay: BLI (ForteBio): biotin-CD25 on an SA sensor, buffer step, then sample.

Assay [2] addresses T1, high-affinity IL2R expressed on the …. Kind of assay: cell-based or functional assay. This is another data set of the same source.
The target in assay [3] is T5, hIL2Rβ/γ on CD25-knockout NK-92 cells (human, UniProt P14784 27-551; P31785 23-369).
T5 sequence (looked up) 1: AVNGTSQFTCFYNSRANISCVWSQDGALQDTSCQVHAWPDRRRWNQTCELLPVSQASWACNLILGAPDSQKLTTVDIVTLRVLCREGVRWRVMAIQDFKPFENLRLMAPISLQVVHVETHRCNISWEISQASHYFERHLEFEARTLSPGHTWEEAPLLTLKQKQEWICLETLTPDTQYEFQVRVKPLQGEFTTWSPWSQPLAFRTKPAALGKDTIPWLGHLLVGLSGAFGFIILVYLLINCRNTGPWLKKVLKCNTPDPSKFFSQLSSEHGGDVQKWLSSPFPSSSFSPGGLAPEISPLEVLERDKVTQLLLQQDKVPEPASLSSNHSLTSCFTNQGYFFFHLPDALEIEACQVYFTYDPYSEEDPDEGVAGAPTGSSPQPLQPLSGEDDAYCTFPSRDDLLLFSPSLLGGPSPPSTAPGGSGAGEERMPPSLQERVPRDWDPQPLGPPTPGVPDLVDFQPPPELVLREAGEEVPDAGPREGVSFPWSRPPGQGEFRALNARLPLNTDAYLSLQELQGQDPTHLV
T5 sequence (looked up) 2: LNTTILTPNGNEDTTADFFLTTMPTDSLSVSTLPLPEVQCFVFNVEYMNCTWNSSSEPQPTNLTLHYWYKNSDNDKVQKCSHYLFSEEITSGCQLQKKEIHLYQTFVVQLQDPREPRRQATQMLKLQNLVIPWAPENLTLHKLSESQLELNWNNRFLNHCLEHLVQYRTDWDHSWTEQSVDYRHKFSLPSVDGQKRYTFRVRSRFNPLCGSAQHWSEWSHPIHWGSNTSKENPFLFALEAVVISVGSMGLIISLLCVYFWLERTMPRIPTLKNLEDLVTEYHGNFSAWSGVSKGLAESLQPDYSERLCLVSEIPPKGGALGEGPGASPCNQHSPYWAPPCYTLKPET
Kind of assay: cell-based or functional assay.

For another assay, the target named is FcγRIIIa-158F (UniProt P08637 17-208, limits assumed). As to the kind of experiment: BLI (ForteBio), series of concentrations, not labelled on the sheet.
For a further assay, the target named is FcγRI (UniProt P12314 16-288, limits assumed). The description is as above.
A further assay concerns the target T6, FcγRIIa (UniProt P12318 36-218, limits assumed).
T6 sequence (looked up): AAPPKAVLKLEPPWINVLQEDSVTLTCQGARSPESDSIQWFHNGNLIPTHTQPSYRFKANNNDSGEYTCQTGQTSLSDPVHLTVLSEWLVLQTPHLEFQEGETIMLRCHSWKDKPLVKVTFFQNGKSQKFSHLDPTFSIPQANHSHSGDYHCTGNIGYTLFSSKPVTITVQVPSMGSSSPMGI
The assay is described as above.

Where two headings read alike, the source gives them in different places.

Sequence of FcγRIIIa-158F (P08637 17-208 limits assumed): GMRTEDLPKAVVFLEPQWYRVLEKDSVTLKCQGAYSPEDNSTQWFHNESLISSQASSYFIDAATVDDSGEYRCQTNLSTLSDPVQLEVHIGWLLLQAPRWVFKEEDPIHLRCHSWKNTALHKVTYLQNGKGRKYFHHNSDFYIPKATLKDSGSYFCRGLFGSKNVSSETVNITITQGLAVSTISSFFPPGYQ
Sequence of FcγRI (P12314 16-288 limits assumed): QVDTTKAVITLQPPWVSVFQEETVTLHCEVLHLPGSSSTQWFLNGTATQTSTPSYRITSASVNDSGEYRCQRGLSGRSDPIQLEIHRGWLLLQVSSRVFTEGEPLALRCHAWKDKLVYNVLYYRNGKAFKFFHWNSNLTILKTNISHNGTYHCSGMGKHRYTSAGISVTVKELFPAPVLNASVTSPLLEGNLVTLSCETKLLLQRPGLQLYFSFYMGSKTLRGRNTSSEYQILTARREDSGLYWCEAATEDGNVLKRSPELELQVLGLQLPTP
Protocol for hIL2Rα/β complex: (§1) The specific method was described as follows: biotin-CD25 (Acro) was diluted in 1×PBS to 5 μg/mL and added to a 96-well black-wall plate at 200 μL per well; hIL2Rβ (Acro) was diluted to 5 μg/mL in 1×PBS and also added to the 96-well black-wall plate at 200 μL per well. […] The 96-well black-wall plate containing the testing samples and a SA sensor was uploaded onto the analyzer, and a program was inputted. The SA sensor was firstly immersed into the well with biotin-CD25 (Acro) and then with hIL2Rβ (Acro) till saturation. After that, the sensor was immersed in the testing sample well and the binding signal was recorded in real-time. At the end of each association-dissociation cycle, the sensor was regenerated by immersing in 500 mM phosphate buffer and then started with the next cycle of detection.
Protocol for hIL2Rα/β/γ complex: as §1

B1: K2G11-Cy05 (other)
chain: SSSTKKTQLQLEHLLLDLQMILNGINNYKNPKLTRMLTFKFYMPKKATELKHLQCLEEELGPLEEVLNLAQSKNFHLRPRDLISNIRVIVLELKGSETCFMCEYADETATIVEFLNRWITFLQSIISTLTGGGGSGGGGSGGGGSGGGGSQVQLVQSGAEVKKPGATVKISCKVSGDTITAYYMHWVRQAPGQGLEWIGRIDPDDDSTKYAENFKGRVTITADTSTDTAYMELSSLRSEDTAVYYCTTITFLYSRELRWFAYWGQGTLVTVSSASTKGPSVFPLAPSSKSTSGGTAALGCLVKDYFPEPVTVSWNSGALTSGVHTFPAVLQSSGLYSLSSVVTVPSSSLGTQTYICNVDHKPSNTKVDKRVEPKSCDKTHTCPPCPAPEFEGGPSVFLFPPKPKDTLMISRTPEVTCVVVDVSHEDPEVQFNWYVDGVEVHNAKTKPREEQYNSTYRVVSVLTVLHQDWLNGKEYKCKVSNKALPASIEKTISKAKGQPREPQVYTLPPSRDELTKNQVSLTCLVKGFYPSDIAVEWESNGQPENNYKTTPPVLDSDGSFFLYSKLTVDKSRWQEGNVFSCSVMHEALHNHYTQKSLSLSPGK
VL: DIVLTQSPATLSLSPGERATLSCQASQYISNYLSWYQQKPGQAPRLLIYSATSLASGIPARFSGSRCGTDFTLTISSLEPEDFAVYYCLQHYSTPYTFGQGTKLEIK
modifications: Engineered disulfide between chain 1 Cys99 (IL-2 T102C) and chain 2 Cys67 (S67C), as in Table 32 (LC: C67-HC: C99).
notes: hIL2-DM (Δ3, C125L) fused to the heavy chain of K2G11, disulfide IL:102-L:67
Turning to B1, the “Activity in Promoting CTLL-2 Cell Proliferation (EC50, nM)” value in assay [1] was found to be 11.2 nM; in assay [2] it was 9.17 nM. In addition, the binding result with hIL2Rα/β/γ complex, with hIL2Rα/β complex and with hIL2Rα (hCD25) was “no binding” each time. For the same molecule, the “Activity in Promoting NK-92 (CD25-KO) Cell Proliferation (EC50, nM)” value in [3] was 0.065 nM.

B2: K2G11-pITM (antibody)
VH: QVQLVQSGAEVKKPGATVKISCKVSGDTITAYYMHWVRQAPGQGLEWIGRIDPDDDSTKYAENFKGRVTITADTSTDTAYMELSSLRSEDTAVYYCTTITFLYSRELRWFAYWGQGTLVTVSSASTKGPSVFPLAPSSKSTSGGTAALGCLVKDYFPEPVTVSWNSGALTSGVHTFPAVLQSSGLYSLSSVVTVPSSSLGTQTYICNVDHKPSNTKVDKRVEPKSCDKTHTCPPCPAPEFEGGPSVFLFPPKPKDTLMISRTPEVTCVVVDVSHEDPEVQFNWYVDGVEVHNAKTKPREEQYNSTYRVVSVLTVLHQDWLNGKEYKCKVSNKALPASIEKTISKAKGQPREPQVYTLPPSRDELTKNQVSLTCLVKGFYPSDIAVEWESNGQPENNYKTTPPVLDSDGSFFLYSKLTVDKSRWQEGNVFSCSVMHEALHNHYTQKSLSLSPGK
VL: DIVLTQSPATLSLSPGERATLSCQASQYISNYLSWYQQKPGQAPRLLIYSATSLASGIPARFSGSRSGTDFTLTISSLEPEDFAVYYCLQHYSTPYTFGQGTKLEIK
notes: K2G11 with pI (N203D/K274Q/Q419E) and TM (L234F/L235E/P331S) mutations, EU numbering, in the hIgG1 heavy chain constant region; also called humanized anti-IL-2 antibody K2G11-pITM; copies: 2 + 2
Turning to B2, the binding result with FcγRIIIa-158F, in the assay with FcγRI and with FcγRIIa was “no binding (tested: not printed on the sheet)” in each case.
